The values below come from article PMC2809820.

Data set [1] concerns the target T1, Ets-1 (rhEts-1) (human, UniProt P14921 1-441).
T1 sequence: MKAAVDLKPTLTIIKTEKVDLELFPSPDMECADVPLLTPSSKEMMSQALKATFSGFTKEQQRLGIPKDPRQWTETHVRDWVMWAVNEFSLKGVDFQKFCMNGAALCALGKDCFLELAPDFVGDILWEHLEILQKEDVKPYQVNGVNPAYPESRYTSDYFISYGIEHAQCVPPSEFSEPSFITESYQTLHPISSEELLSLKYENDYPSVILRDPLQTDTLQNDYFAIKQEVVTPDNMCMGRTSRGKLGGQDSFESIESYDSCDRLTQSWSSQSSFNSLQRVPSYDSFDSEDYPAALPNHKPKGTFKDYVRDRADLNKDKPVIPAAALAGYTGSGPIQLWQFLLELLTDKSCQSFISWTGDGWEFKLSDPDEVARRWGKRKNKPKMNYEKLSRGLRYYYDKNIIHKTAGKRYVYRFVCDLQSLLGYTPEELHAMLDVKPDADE
Briefly: competition.

Data set [2] has as its target T1, Ets-1 (rhEts-1). Put plainly: competition. This is another data set of the same source.
For data set [3], the target named is T1, Ets-1 (rhEts-1). Put plainly: EMSA.

B1: IL4P.1 (dsDNA)
DNA 1: GATTTCACAGGAACATTTTAC
DNA 2: GTAAAATGTTCCTGTGAAATC
Take B1: the binding result in data set [1] is “no binding”.

B2: RHS5 (dsDNA)
DNA 1: GGTAACACAGGAAGTCAGCAG
DNA 2: CTGCTGACTTCCTGTGTTACC
For the molecule B2, the binding result in data set [2] was “binds”.

B3: IL4P.2 (dsDNA)
DNA 1: TTTTCTCCTGGAAGAGAGGTG
DNA 2: CACCTCTCTTCCAGGAGAAAA
B3: the binding result in data set [1] was “no binding”.

B4: SC1_ETS1 (dsDNA)
DNA 1: CGGCCAAGCCGGAAGTGAGTGCC
DNA 2: GGCACTCACTTCCGGCTTGGCCG
B4: the binding result in data set [3] is “binds”.

B5: IL13P (dsDNA)
DNA 1: GTTCGGGGAGGAAGTGGGTAG
DNA 2: CTACCCACTTCCTCCCCGAAC
As for B5, the binding result in data set [2] is reported as “binds”.
